Blank lines part the entries; values can stand above or below the binder they belong to. Bridge positions count the residues as written; N and C are the ends. Square brackets hold non-standard residues; d marks the D form. Ends that are not written are not given here.
Tests used:
[1] = biological target: MCR1 receptor (on MCR1 receptor-expressing B16-F1 cells) (UniProt Q01727 1-315); assay: cell-based or functional assay
[2] = biological target: ANP receptor (on ANP receptor-expressing LLC-PK1 cells); assay: cell-based or functional assay

Sequence of MCR1 receptor (on MCR1 receptor-expressing B16-F1 cells) (Q01727 whole entry): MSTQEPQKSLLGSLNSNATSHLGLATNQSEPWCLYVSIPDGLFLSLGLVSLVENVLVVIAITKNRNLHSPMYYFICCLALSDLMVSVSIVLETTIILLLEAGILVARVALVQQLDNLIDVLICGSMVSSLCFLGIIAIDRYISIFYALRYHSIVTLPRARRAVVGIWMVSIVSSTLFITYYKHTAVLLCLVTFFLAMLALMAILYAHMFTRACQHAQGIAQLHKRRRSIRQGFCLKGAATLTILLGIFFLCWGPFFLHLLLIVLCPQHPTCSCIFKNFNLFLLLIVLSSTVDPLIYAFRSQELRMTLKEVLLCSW

B1: bifunctional hormone of SEQ ID NO: 42 (peptide)
peptide: Ac-EH[dF]RWGRRSSCFGGRMDRIGAQSGLGCNSFRY-NH2
modifications: disulfide 11-27
SMILES: CC[C@H](C)[C@@H]1NC(=O)[C@H](CCCNC(=N)N)NC(=O)[C@H](CC(=O)O)NC(=O)[C@H](CCSC)NC(=O)[C@H](CCCNC(=N)N)NC(=O)CNC(=O)CNC(=O)[C@H](Cc2ccccc2)NC(=O)[C@@H](NC(=O)[C@H](CO)NC(=O)[C@H](CO)NC(=O)[C@H](CCCNC(=N)N)NC(=O)[C@H](CCCNC(=N)N)NC(=O)CNC(=O)[C@H](Cc2c[nH]c3ccccc23)NC(=O)[C@H](CCCNC(=N)N)NC(=O)[C@@H](Cc2ccccc2)NC(=O)[C@H](Cc2c[nH]cn2)NC(=O)[C@H](CCC(=O)O)NC(C)=O)CSSC[C@@H](C(=O)N[C@@H](CC(N)=O)C(=O)N[C@@H](CO)C(=O)N[C@@H](Cc2ccccc2)C(=O)N[C@@H](CCCNC(=N)N)C(=O)N[C@@H](Cc2ccc(O)cc2)C(N)=O)NC(=O)CNC(=O)[C@H](CC(C)C)NC(=O)CNC(=O)[C@H](CO)NC(=O)[C@H](CCC(N)=O)NC(=O)[C@H](C)NC(=O)CNC1=O
EC50 on the production of cAMP (BC16-F1 cells) [1]: 6 nM
EC50 on the production of cGMP (LLC-PK1 cells) [2]: 502 nM

B4: bifunctional hormone of SEQ ID NO: 39 (peptide)
peptide: Ac-H[dF]RWGRRSSCFGGRMDRIGAQSGLGCNSFRY-NH2
modifications: disulfide 10-26
SMILES: CC[C@H](C)[C@@H]1NC(=O)[C@H](CCCNC(=N)N)NC(=O)[C@H](CC(=O)O)NC(=O)[C@H](CCSC)NC(=O)[C@H](CCCNC(=N)N)NC(=O)CNC(=O)CNC(=O)[C@H](Cc2ccccc2)NC(=O)[C@@H](NC(=O)[C@H](CO)NC(=O)[C@H](CO)NC(=O)[C@H](CCCNC(=N)N)NC(=O)[C@H](CCCNC(=N)N)NC(=O)CNC(=O)[C@H](Cc2c[nH]c3ccccc23)NC(=O)[C@H](CCCNC(=N)N)NC(=O)[C@@H](Cc2ccccc2)NC(=O)[C@H](Cc2c[nH]cn2)NC(C)=O)CSSC[C@@H](C(=O)N[C@@H](CC(N)=O)C(=O)N[C@@H](CO)C(=O)N[C@@H](Cc2ccccc2)C(=O)N[C@@H](CCCNC(=N)N)C(=O)N[C@@H](Cc2ccc(O)cc2)C(N)=O)NC(=O)CNC(=O)[C@H](CC(C)C)NC(=O)CNC(=O)[C@H](CO)NC(=O)[C@H](CCC(N)=O)NC(=O)[C@H](C)NC(=O)CNC1=O
EC50 on the production of cAMP (BC16-F1 cells) [1]: 11.5 nM
EC50 on the production of cGMP (LLC-PK1 cells) [2]: 52.1 nM

B5: bifunctional hormone of SEQ ID NO: 40 (peptide)
peptide: SLRRSSCFGGRMDRIGAQSGLGCNSFRYHXRW
modifications: disulfide bridge between C residues at positions 7 and 23; D-Phe (f) at position 30; C-terminal amidation (NH2)
EC50 on the production of cAMP (BC16-F1 cells) [1]: 9.8 nM
EC50 on the production of cGMP (LLC-PK1 cells) [2]: 7000 nM

B6: bifunctional hormone of SEQ ID NO: 31 (peptide)
peptide: Ac-H[dF]RWGKPMCHFGGRMDRISCYR-NH2
modifications: disulfide 9-20
SMILES: CC[C@H](C)[C@@H]1NC(=O)[C@H](CCCNC(=N)N)NC(=O)[C@H](CC(=O)O)NC(=O)[C@H](CCSC)NC(=O)[C@H](CCCNC(=N)N)NC(=O)CNC(=O)CNC(=O)[C@H](Cc2ccccc2)NC(=O)[C@H](Cc2c[nH]cn2)NC(=O)[C@@H](NC(=O)[C@H](CCSC)NC(=O)[C@@H]2CCCN2C(=O)[C@H](CCCCN)NC(=O)CNC(=O)[C@H](Cc2c[nH]c3ccccc23)NC(=O)[C@H](CCCNC(=N)N)NC(=O)[C@@H](Cc2ccccc2)NC(=O)[C@H](Cc2c[nH]cn2)NC(C)=O)CSSC[C@@H](C(=O)N[C@@H](Cc2ccc(O)cc2)C(=O)N[C@@H](CCCNC(=N)N)C(N)=O)NC(=O)[C@H](CO)NC1=O
EC50 on the production of cAMP (BC16-F1 cells) [1]: 20.9 nM
EC50 on the production of cGMP (LLC-PK1 cells) [2]: 74.3 nM

Now from value to binder:

EC50 on the production of cAMP (BC16-F1 cells) [1]: 49.1 nM
EC50 on the production of cGMP (LLC-PK1 cells) [2]: 33.1 nM
B2: bifunctional hormone of SEQ ID NO: 36 (peptide)
peptide: MEHFRWGRRSSCFGGRMDRIGAQSGLGCNSFRY-NH2
modifications: disulfide 12-28; N-terminus assumed
SMILES: CC[C@H](C)[C@@H]1NC(=O)[C@H](CCCNC(=N)N)NC(=O)[C@H](CC(=O)O)NC(=O)[C@H](CCSC)NC(=O)[C@H](CCCNC(=N)N)NC(=O)CNC(=O)CNC(=O)[C@H](Cc2ccccc2)NC(=O)[C@@H](NC(=O)[C@H](CO)NC(=O)[C@H](CO)NC(=O)[C@H](CCCNC(=N)N)NC(=O)[C@H](CCCNC(=N)N)NC(=O)CNC(=O)[C@H](Cc2c[nH]c3ccccc23)NC(=O)[C@H](CCCNC(=N)N)NC(=O)[C@H](Cc2ccccc2)NC(=O)[C@H](Cc2c[nH]cn2)NC(=O)[C@H](CCC(=O)O)NC(=O)[C@@H](N)CCSC)CSSC[C@@H](C(=O)N[C@@H](CC(N)=O)C(=O)N[C@@H](CO)C(=O)N[C@@H](Cc2ccccc2)C(=O)N[C@@H](CCCNC(=N)N)C(=O)N[C@@H](Cc2ccc(O)cc2)C(N)=O)NC(=O)CNC(=O)[C@H](CC(C)C)NC(=O)CNC(=O)[C@H](CO)NC(=O)[C@H](CCC(N)=O)NC(=O)[C@H](C)NC(=O)CNC1=O

EC50 on the production of cAMP (BC16-F1 cells) [1]: 259 nM
EC50 on the production of cGMP (LLC-PK1 cells) [2]: 6.9 nM
B3: bifunctional hormone of SEQ ID NO: 38 (peptide)
peptide: Ac-HFRWGRRSSCFGGRMDRIGAQSGLGCNSFRY-NH2
modifications: disulfide 10-26
SMILES: CC[C@H](C)[C@@H]1NC(=O)[C@H](CCCNC(=N)N)NC(=O)[C@H](CC(=O)O)NC(=O)[C@H](CCSC)NC(=O)[C@H](CCCNC(=N)N)NC(=O)CNC(=O)CNC(=O)[C@H](Cc2ccccc2)NC(=O)[C@@H](NC(=O)[C@H](CO)NC(=O)[C@H](CO)NC(=O)[C@H](CCCNC(=N)N)NC(=O)[C@H](CCCNC(=N)N)NC(=O)CNC(=O)[C@H](Cc2c[nH]c3ccccc23)NC(=O)[C@H](CCCNC(=N)N)NC(=O)[C@H](Cc2ccccc2)NC(=O)[C@H](Cc2c[nH]cn2)NC(C)=O)CSSC[C@@H](C(=O)N[C@@H](CC(N)=O)C(=O)N[C@@H](CO)C(=O)N[C@@H](Cc2ccccc2)C(=O)N[C@@H](CCCNC(=N)N)C(=O)N[C@@H](Cc2ccc(O)cc2)C(N)=O)NC(=O)CNC(=O)[C@H](CC(C)C)NC(=O)CNC(=O)[C@H](CO)NC(=O)[C@H](CCC(N)=O)NC(=O)[C@H](C)NC(=O)CNC1=O

— patent US20090011997A1 (THERATECHNOLOGIES, published 2009)
